For this assay, the target named is GPIba (CD42b) (human) (UniProt P07359). As to the kind of experiment: cell-based or functional assay.
Sequence of UniProt P07359 (P07359 17-652): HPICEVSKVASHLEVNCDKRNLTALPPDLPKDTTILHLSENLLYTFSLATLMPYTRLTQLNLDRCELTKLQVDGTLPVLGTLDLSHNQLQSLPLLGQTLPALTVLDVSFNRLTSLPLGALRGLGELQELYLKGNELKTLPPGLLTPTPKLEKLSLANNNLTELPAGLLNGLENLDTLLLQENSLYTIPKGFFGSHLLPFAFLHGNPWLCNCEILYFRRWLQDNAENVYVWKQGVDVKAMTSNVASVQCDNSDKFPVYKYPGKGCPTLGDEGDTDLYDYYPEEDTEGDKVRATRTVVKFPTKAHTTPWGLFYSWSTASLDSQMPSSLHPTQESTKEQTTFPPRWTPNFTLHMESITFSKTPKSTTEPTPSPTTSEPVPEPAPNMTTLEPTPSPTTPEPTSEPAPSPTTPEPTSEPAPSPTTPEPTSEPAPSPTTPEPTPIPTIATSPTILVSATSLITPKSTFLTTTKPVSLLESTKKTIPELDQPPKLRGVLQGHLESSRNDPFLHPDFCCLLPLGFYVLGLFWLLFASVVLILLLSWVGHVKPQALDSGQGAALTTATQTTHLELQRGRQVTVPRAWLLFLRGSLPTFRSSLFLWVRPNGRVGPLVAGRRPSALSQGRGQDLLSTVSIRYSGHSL

HIP1 antibody yielded a ristocetin agglutination reaction of human peripheral blood platelets (maximum light transmission) of over 10 µg/mL.
